Data as given in IntAct's records for PubMed 18052611.

B1: Protein matrimony (Drosophila melanogaster (Fruit fly)), Q23973 (parent)
chain: MENSRTPTNKTKITLNRTPTLKERRWNTLKVNTSNVRCSTPIFGNFRSPNLSPIENMGTKGKSPVSPMRFATFKKVPTKVHPKQQQQQQHQHCHRTQLKPPPFVLPKPQEEIIEPEREIKSCSSPDTCSDDSNMETSLALESRRRSIKASNHSYVVNHAANVEQILMHMGLENYVTNFEEAHIDLVELASLERADLVKIGLNTDEDCNRIMDVLHTL
partner: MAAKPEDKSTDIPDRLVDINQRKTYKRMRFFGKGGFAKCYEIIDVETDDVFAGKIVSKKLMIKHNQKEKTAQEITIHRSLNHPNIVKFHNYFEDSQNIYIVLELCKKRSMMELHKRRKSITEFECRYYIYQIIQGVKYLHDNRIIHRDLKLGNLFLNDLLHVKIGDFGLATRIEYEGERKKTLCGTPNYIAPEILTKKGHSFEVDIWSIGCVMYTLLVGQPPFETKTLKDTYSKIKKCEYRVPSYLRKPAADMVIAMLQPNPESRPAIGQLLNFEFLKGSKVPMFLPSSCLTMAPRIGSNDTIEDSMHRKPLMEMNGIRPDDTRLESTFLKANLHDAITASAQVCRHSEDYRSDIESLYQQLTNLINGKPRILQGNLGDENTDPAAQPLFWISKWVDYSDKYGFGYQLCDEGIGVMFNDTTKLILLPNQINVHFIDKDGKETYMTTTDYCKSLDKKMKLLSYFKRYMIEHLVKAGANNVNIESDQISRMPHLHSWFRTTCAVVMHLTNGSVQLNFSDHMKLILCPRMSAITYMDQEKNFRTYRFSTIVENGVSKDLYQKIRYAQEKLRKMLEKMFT

Variants of: B1
Conditions: with polo_drome polo

| effect of a mutation on the interaction | Variant |
| --- | --- |
| disrupting interaction | MENSRTPTNKTKITLNRTPTLKERRWNTLKVNTSNVRCSAPIFGNFRSPNLSPIENMGTKGKSPVSPMRFATFKKVPTKVHPKQQQQQQHQHCHRTQLKPPPFVLPKPQEEIIEPEREIKSCSSPDTCSDDSNMETSLALESRRRSIKASNHSYVVNHAANVEQILMHMGLENYVTNFEEAHIDLVELASLERADLVKIGLNTDEDCNRIMDVLHTL [T40A] |
